Assay results: patent US9605080B2, “Antibodies against CD73” (BRISTOL-MYERS SQUIBB COMPANY, priority 2014, dated 2017)
Where a chain is given by its changes, count along the chain named. In names and notes the source's numbering stands. Each block holds one molecule with its values, some of them ahead of it.

Experiments:
[1] = molecular target: T1, endogenous CD73 activity in Calu-6 cells (Homo sapiens, UniProt P21589); assay: Dual cell line HTRF cAMP assay (Calu-6 and HEK293/A2AR cells); type: cell-based; conditions: percentage of inhibition compared to 100 nM 11F11 set to 100%
T1 construct: Calu6 (CD73 endogenous expressors; human pulmonary adenocarcinoma cell line); endogenous in cells; host or cells: Calu6 (human pulmonary adenocarcinoma)
T1 sequence (P21589 27-549): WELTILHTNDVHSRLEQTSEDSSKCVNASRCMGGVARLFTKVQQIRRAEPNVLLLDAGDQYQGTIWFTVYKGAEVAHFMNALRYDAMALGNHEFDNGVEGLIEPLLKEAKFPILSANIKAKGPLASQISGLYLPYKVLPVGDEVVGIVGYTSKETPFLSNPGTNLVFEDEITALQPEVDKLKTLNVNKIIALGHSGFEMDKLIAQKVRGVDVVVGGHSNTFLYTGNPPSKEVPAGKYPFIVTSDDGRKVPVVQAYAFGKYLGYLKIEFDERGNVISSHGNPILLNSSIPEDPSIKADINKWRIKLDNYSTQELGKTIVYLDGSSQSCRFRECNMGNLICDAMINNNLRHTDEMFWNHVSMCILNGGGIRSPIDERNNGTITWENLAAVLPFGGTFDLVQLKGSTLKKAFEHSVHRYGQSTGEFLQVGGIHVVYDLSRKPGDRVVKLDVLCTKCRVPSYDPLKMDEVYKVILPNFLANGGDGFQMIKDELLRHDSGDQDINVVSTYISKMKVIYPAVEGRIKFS
Description: CD73 antibodies were serial diluted with PBS buffer containing 0.2% BSA, and plated 5 μl/well in 384 well white bottom proxiplate (PerkinElmer, Waltham, Mass.). Calu-6 cells were harvested and resuspend in PBS containing 0.2% BSA, then 5 μl of cells (300 cells/well) were added to the plate. The cells were incubated with antibodies for 10 minutes at 37° C. […] The cells were further incubated with AMP for 30 minutes at 37° C. During this time, HEK293/A2AR cells were harvested and diluted to 0.4 million/ml in PBS containing 0.2% BSA. They were added into the assay plate at 5 μl/well and continued to incubate at 37° C. for 1 hr. HRTF assays were performed using the homogenous time-resolved fluorescence (HTRF) HiRange cAMP detection kit (Cisbio, Bedford, Mass.) by adding 10 μl/well cAMP-conjugated d2 and 10μl/well europium cryptate conjugated anti-cAMP antibody in lysis buffer according to the manufacturer's instructions. Plates were incubated at room temperature for 60 minutes and Fluorescence Resonance Energy Transfer (FRET) signals (665 and 615 nM) were read using an EnVision plate reader (PerkinElmer, Waltham, Mass.). The FRET signal was calculated as the ratio of signal from the 665 nm (acceptor) and 615 nm (donor) channels and multiplied by 10,000. IC50 and Ymax were measured. […] All calculations were determined as a percentage of inhibition compared to this control, which was set to 100%.

[2] = Differential scanning calorimetry, thermal stability of CD73 mAbs; type: physicochemical; conditions: PBS pH 7.1
Description: The thermal stability of CD73 mAbs were determined using a MicroCal Capillary DSC instrument (GE Healthcare). Antibodies were analyzed at a concentrations of 0.5-0.75 mg/ml in PBS pH 7.1. To stabilize the DSC instrument baseline and obtain a consistent thermal history, multiple scans of buffer alone in both the sample and reference cell were recorded prior to sample analysis. Sample scans contained mAb in the sample cell and PBS pH 7.1 in the reference cell. All scans were run from 10-110° C. at a scan rate of 60°/hr using a 5 minute pre-cycle thermostat period and no post-cycle thermostat period. Data (as shown in Table 15 below) were analyzed using MicroCal Origin Cap DSC analysis software. The appropriate buffer-buffer blank scans were subtracted from the sample-buffer data, and the transition midpoint temperature (Tm) values were determined by fitting the data to a non-2-state model. Tm1, Tm2 and Tm3 are the Tms for different domains in the antibodies.

CD73 on NCI-H292 cells = molecular target: T2, CD73 on NCI-H292 cells (Homo sapiens, UniProt P21589); assay: Flow cytometry based cross-blocking on NCI-H292 cells; type: binding; conditions: FITC-labeled 11F11, 10 ug/mL
T2 construct: maintenance of downregulation of endogenous CD73; endogenous in cells; host or cells: NCI-H292
T2 sequence (P21589 27-549): T1 sequence (P21589 27-549)
Description: The antibodies were also subjected to flow cytometry based cross-blocking. The experiment was conducted as follows using one set of labeled fluorescently labeled antibody and a second set of unlabeled antibody: 100000 NCI-H292 cells were seeded per well. The plate was spun down and the cells were resuspended in 100 uL 2% FBS in PBS per well. The cells were blocked on ice for 20 min. Unlabeled antibody, as indicated, in 2% FBS in PBS was added to each well. […] 6 wells of cells were incubated without antibody, and were resuspended in 100 uL 2% FBS in PBS only (for controls). The cells were then incubated on ice for 30 min. The cells were washed twice with 2% FBS in PBS and the samples were resuspended in 140 uL 2% FBS in PBS, and analyzed on a FacsCalibur flow cytometer (Becton Dickinson).

human FcγRs = assay: SPR binding to human FcγRs (anti-his Fab captured FcgR-his proteins); conditions: 1.0 μM antibody
Description: Binding of the constructs to human FcγRs was measured via SPR. hCD64 and hCD32a-H131 binding data for IgG1.1 and IgG2 molecules were consistent with expected values for the different Fcs. IgG1.1f is the most inert Fc.
The binding of antibodies to Fc gamma receptors (FcγRs or FcgRs) was studied using biosensor technologies including Biacore surface plasmon resonance (SPR) and Fortebio Biolayer Interferometry (BLI). SPR studies were performed on a Biacore T100 instrument (GE Healthcare) at 25° C. The Fab fragment from a murine anti-6×His antibody was immobilized on a CM5 sensor chip using EDC/NHS to a density of ˜3000 RU. Various his-tagged FcgRs (7 ug/ml) were captured via the C-terminal his-tag using a contact time of 30 s at 10 ul/min, and the binding of 1.0 μM antibody was evaluated in a running buffer of 10 mM NaPO4, 130 mM NaCl, 0.05% p20 (PBS-T) pH 7.1. FcgRs used for these experiments included CD64 (FcgRI), CD32a-H131 (FcgRIIa-H131), CD32a-R131 (FcgRIIa-R131), CD32b (FcgRIIb), CD16a-V158 (FcgRIIIa-V158), CD16b-NA1 (FcgRIIIb-NA1), and CD16B-NA2 (FcgRIIIb-NA2). BLI experiments were performed on a Fortebio Octet RED instrument (Pall, Fortebio) at 25° C. in 10 mM NaPO4, 130 mM NaCl, 0.05% p20 (PBS-T) pH 7.1. […]

[3] = test system: hCD32a-H131, hCD32a-R131, hCD32b, hCD16a-V158, hCD64; assay: BLI (Fortebio Octet) binding of FcgR analytes to antibodies captured from supernatants; parameters: species or system human
Description: The binding of antibodies to Fc gamma receptors (FcγRs or FcgRs) was studied using biosensor technologies including Biacore surface plasmon resonance (SPR) and Fortebio Biolayer Interferometry (BLI). SPR studies were performed on a Biacore T100 instrument (GE Healthcare) at 25° C. The Fab fragment from a murine anti-6×His antibody was immobilized on a CM5 sensor chip using EDC/NHS to a density of ˜3000 RU. Various his-tagged FcgRs (7 ug/ml) were captured via the C-terminal his-tag using a contact time of 30 s at 10 ul/min, and the binding of 1.0 μM antibody was evaluated in a running buffer of 10 mM NaPO4, 130 mM NaCl, 0.05% p20 (PBS-T) pH 7.1. FcgRs used for these experiments included CD64 (FcgRI), CD32a-H131 (FcgRIIa-H131), CD32a-R131 (FcgRIIa-R131), CD32b (FcgRIIb), CD16a-V158 (FcgRIIIa-V158), CD16b-NA1 (FcgRIIIb-NA1), and CD16B-NA2 (FcgRIIIb-NA2). BLI experiments were performed on a Fortebio Octet RED instrument (Pall, Fortebio) at 25° C. in 10 mM NaPO4, 130 mM NaCl, 0.05% p20 (PBS-T) pH 7.1. Antibodies were captured out of undiluted expression supernatants on protein A coated sensors, followed by the binding of 1 μM hCD32a-H131, hCD32a-R131, hCD32b, hCD16a-V158, or 0.1 μM hCD64 analytes.
The next set of constructs was used to engineer effector function into the otherwise effector function negative IgG2 isotype. […]

Molecule: Nc1ncnc2c1ncn2[C@@H]1O[C@H](COP(=O)(O)CP(=O)(O)O)[C@@H](O)[C@H]1O [APCP]
Ymax [1]: 97%

competition with 11F11 (CD73 on NCI-H292 cells): competes with 11F11
B1: 7A11: human anti-CD73 mAb, IgG1za, VK1; VH SEQ ID NO: 88, VL SEQ ID NO: 92 (antibody, V domains shown)
VH: EVQLVESGGGLVQTGRSLRLSCAASGFTFDDYAMHWVRQAPGKGLEWVSDISWNSDIIGYADSVKGRFTISRDNAKNSLYLQMNSLRAEDTALYYCAKDIYGSGSSFFDYWGQGILVTVSS
VL: DIQMTQSPSSLSASVGDRVTITCRASQYISSWLAWYQQKPEKAPKSLIYAASSLQSGVPSRFSGSGSGTDFTLTISSLQPEDFATYYCQQYHSYPPTFGQGTRLEIK
modifications: Synthetic: 7A11 VH; Synthetic: 7A11 VK1
DSC Tm1 (oC) [2]: 64.8 oC
DSC Tm2 (oC) [2]: 70.2 oC
DSC Tm3 (oC) [2]: 82.8 oC
DSC Tonset (oC) [2]: 56.0 oC

B2: IgG2.3G1-AY-V27: IgG2.3G1-AY with S267E (protein)
chain: ASTKGPSVFPLAPCSRSTSESTAALGCLVKDYFPEPVTVSWNSGALTSGVHTFPAVLQSSGLYSLSSVVTVPSSNFGTQTYTCNVDHKPSNTKVDKTVERKSCVECPPCPAPELLGGPSVFLFPPKPKDTLMISRTPEVTCVVVDVEHEDPEVKFNWYVDGVEVHNAKTKPREEQYNSTYRVVSVLTVLHQDWLNGKEYKCKVSNKALPAPIEKTISKAKGQPREPQVYTLPPSREEMTKNQVSLTCLVKGFYPSDIAVEWESNGQPENNYKTTPPVLDSDGSFFLYSKLTVDKSRWQQGNVFSCSVMHEALHNHYTQKSLSLSPGK
modifications: Synthetic: IgG2.3G1-AY-V27
notes: IgG2.3G1-AY with S267E
FcgR binding properties (SPR) (human FcγRs): comparable FcgR binding properties to IgG1f and IgG1f-S267E

B3: IgG2.5G1-AY-V27: IgG2-B-form variant (C131S) hybrid with IgG1f, V27 (protein)
constant: B2 chain with C14S, S102C
modifications: left off: another chain or arm of the molecule
FcgR binding properties (SPR) (human FcγRs): IgG1f or modified IgG1f like effector functions

FcgR binding properties (BLI, supernatants) [3]: appreciable binding to only CD32a-H131
B4: IgG2.3: antibody with IgG2 constant region with C219S (protein)
constant: ASTKGPSVFPLAPCSRSTSESTAALGCLVKDYFPEPVTVSWNSGALTSGVHTFPAVLQSSGLYSLSSVVTVPSSNFGTQTYTCNVDHKPSNTKVDKTVERKSCVECPPCPAPPVAGPSVFLFPPKPKDTLMISRTPEVTCVVVDVSHEDPEVQFNWYVDGVEVHNAKTKPREEQFNSTFRVVSVLTVVHQDWLNGKEYKCKVSNKGLPAPIEKTISKTKGQPREPQVYTLPPSREEMTKNQVSLTCLVKGFYPSDIAVEWESNGQPENNYKTTPPMLDSDGSFFLYSKLTVDKSRWQQGNVFSCSVMHEALHNHYTQKSLSLSPGK
modifications: left off: another chain or arm of the molecule
notes: antibody with IgG2 constant region with C219S
